Here are results for one molecule from paper PMC12532034 (Cancer immunology research, 2025).

This assay concerns the target T1, GST-Rb 379–928 (UniProt P06400 379-928).
T1 sequence (looked up): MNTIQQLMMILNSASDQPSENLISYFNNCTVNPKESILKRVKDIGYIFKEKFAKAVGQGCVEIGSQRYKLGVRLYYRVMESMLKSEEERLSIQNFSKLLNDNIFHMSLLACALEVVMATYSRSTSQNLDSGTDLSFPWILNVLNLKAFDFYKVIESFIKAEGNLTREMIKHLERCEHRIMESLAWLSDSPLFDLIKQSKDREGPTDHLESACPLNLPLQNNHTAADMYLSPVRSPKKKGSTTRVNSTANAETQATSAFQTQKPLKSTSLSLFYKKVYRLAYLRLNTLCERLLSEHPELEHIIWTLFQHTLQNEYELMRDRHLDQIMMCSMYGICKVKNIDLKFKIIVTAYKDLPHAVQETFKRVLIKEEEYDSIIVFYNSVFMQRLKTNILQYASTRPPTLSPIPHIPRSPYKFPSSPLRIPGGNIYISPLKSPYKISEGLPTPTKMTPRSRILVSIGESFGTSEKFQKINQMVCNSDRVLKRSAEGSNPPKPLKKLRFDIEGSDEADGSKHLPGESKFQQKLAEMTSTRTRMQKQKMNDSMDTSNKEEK
Kind of assay: AlphaScreen or HTRF. In general terms: Alpha assays give light when donor and acceptor beads are brought close together.

B1: MBP-E2F1 (natural protein)
chain: not shown
For B1, the binding result is given as “binds”.
